Experimental data as given in patent publication US7943337B2, “Method for screening a protease” (Asahi Kasei Pharma Corporation, priority 2003, dated 2011).

Columns and labels:
Type in all cases: biochemical
[1] = Screening of protease for hemoglobin A1c determination (pH 7.5); conditions: pH 7.5, 37° C. 60 minutes; 550 nm, reference 595 nm; FOD923 developing solution
Protocol: (§1) A screening method is shown in which a protease that cleaves a glycated peptide from N-terminal-glycated pentapeptide of a hemoglobin β-chain without substantially cleaving a glycated amino acid or glycated peptide from N-terminal-glycated pentapeptide of a hemoglobin α-chain. Each 10 μl of a sample for screening was placed in 3 wells of a 96-well plate, respectively. Then, the first well was supplemented with 50 μl of an α-solution, the second well was supplemented with 50 μl of a β-solution, and the third well was supplemented with 50 μl of a control solution. After the plate was incubated at 37° C. for 60 minutes, 50 μl of distilled water and 50 μl of a developing solution were added, and the whole was left at room temperature for 30 minutes. Then, the absorbance at a measuring wavelength of 550 nm and a reference wavelength of 595 nm were determined using a Microplate Reader (model 550, manufactured by Bio-Rad), to select a sample having a difference in the absorbance between the β-solution-supplemented well and the control solution-supplemented well larger than a difference in the absorbance between the α-solution-supplemented well and the control solution-supplemented well. Thus the protease of object was screened. The samples to be used include: carboxypeptidase B (manufactured by Sigma-Aldrich Corp.); carboxypeptidase W (manufactured by Wako Pure Chemical Industries, Ltd.); carboxypeptidase Y (manufactured by Oriental Yeast Co., Ltd.); protease (type XXVII nagase: manufactured by Sigma-Aldrich Corp.); protease (type VIII Subtilisin Carlsberg: manufactured by Sigma-Aldrich Corp.); protease (type XXIV Bacterial: manufactured by Sigma-Aldrich Corp.); Proteinase K (manufactured by Wako Pure Chemical Industries, Ltd.); neutral proteinase (manufactured by Toyobo Co., Ltd.); carboxypeptidase A (manufactured by Wako Pure Chemical Industries, Ltd.); thermolysin (manufactured by Wako Pure Chemical Industries, Ltd.); and distilled water. To confirm a degree of color development caused by a developing solution, 10 μl of 1 mM FVH (manufactured by Peptide Institute Inc.) and 1 mM FVL (manufactured by Peptide Institute Inc.) were placed in a well severally, followed by adding 50 μl of the control solution. The whole was incubated at 37° C. for 60 minutes. Then, 50 μl of distilled water and 50 μl of the developing solution were added and the whole was left at room temperature for 30 minutes, followed by the determination in a similar manner as described above.
(§2) 0.2 mM α-Glycated pentapeptide (manufactured by Peptide Institute Inc.)
(§3) 0.09% 4-Aminoantipyrine (manufactured by Wako Pure Chemical Industries, Ltd.)
(§4) 0.06% TODB (manufactured by Dojindo Laboratories)
(§5) 15 U/ml Peroxidase (manufactured by Sigma-Aldrich Corp.)
(§6) Various bacteria were cultured with shaking in Difco Lactobacilli MRS Broth (manufactured by Becton, Dickinson and Company), a MM medium (2.5% mannose, 2.5% beer yeast extract, pH7.0), and a YPG medium (2% glucose, 1% polypeptone, 2% yeast extract, 0.1% potassium dihydrogen phosphate, 0.05% magnesium sulfate heptahydrate, pH 7.0) at a temperature of from 28 to 30° C. for 1 to 7 days. Then, cells were removed by centrifugation from the culture solutions to obtain culture supernatants. A sample was prepared by diluting the obtained culture supernatants 10-fold with a 10 mM potassium phosphate buffer (pH7.5), and the determination was performed in a similar manner as Example 1.

[2] = as above; conditions: for β-Solution (absorbance, RAW DATA): pH 7.5, 37° C. 60 minutes, 550 nm, reference 595 nm, FOD923 developing solution; for specificity for β-chain over α-chain N-terminal glycated pentapeptide: pH 7.5
Protocol: as §1
(§7) 0.2 mM β-Glycated pentapeptide (manufactured by Peptide Institute Inc.)
as §3, §4, §5, §6

[3] = Screening of protease (pH 7.5), control solution without substrate; conditions: pH 7.5, no substrate; 550 nm, reference 595 nm
Protocol: as §1, §3, §4, §5, §6

[4] = Screening of protease for hemoglobin A1c determination (pH 3.5); conditions: pH 3.5, 37° C. 60 minutes; 550 nm, reference 595 nm; FOD923 developing solution
Protocol: (§8) A screening method is shown in which a protease that cleaves a glycated peptide from N-terminal-glycated pentapeptide of a hemoglobin β-chain without substantially cleaving a glycated amino acid or glycated peptide from N-terminal-glycated pentapeptide of a hemoglobin α-chain. Each 10 μl of a sample for screening was placed in 3 wells of a 96-well plate, respectively. Then, the first well was supplemented with 50 μl of an α-solution, the second well was supplemented with 50 μl of a β-solution, and the third well was supplemented with 50 μl of a control solution. After the plate was incubated at 37° C. for 60 minutes, 50 μl of pH-regulating solution and 50 μl of a developing solution were added, and the whole was left at room temperature for 30 minutes. Then, the absorbance at a measuring wavelength of 550 nm and a reference wavelength of 595 nm were determined using a Microplate Reader (model 550, manufactured by Bio-Rad), to select a sample having a difference in the absorbance between the β-solution-supplemented well and the control solution-supplemented well larger than a difference in the absorbance between the α-solution-supplemented well and the control solution-supplemented well. Thus the protease of object was screened. The samples to be used include: carboxypeptidase B (manufactured by Sigma-Aldrich Corp.); carboxypeptidase W (manufactured by Wako Pure Chemical Industries, Ltd.); carboxypeptidase Y (manufactured by Oriental Yeast Co., Ltd.); protease (type XXVII nagase: manufactured by Sigma-Aldrich Corp.); protease (type VIII Subtilisin Carlsberg: manufactured by Sigma-Aldrich Corp.); protease (type XXIV Bacterial: manufactured by Sigma-Aldrich Corp.); Proteinase K (manufactured by Wako Pure Chemical Industries, Ltd.); neutral proteinase (manufactured by Toyobo Co., Ltd.); and distilled water. To confirm a degree of color development caused by a developing solution, 10 μl of 1 mM FVH (manufactured by Peptide Institute Inc.) and 1 mM FVL (manufactured by Peptide Institute Inc.) were placed in a well severally, followed by adding 50 μl of the control solution. The whole was incubated at 37° C. for 60 minutes. Then, 50 μl of a pH-regulating solution and 50 μl of the developing solution were added and the whole was left at room temperature for 30 minutes, followed by the determination in a similar manner as described above.
(§9) 50 mM Acetate-sodium acetate (pH3.5)
as §2
(§10) 0.09% 4-aminoantipyrine (manufactured by Wako Pure Chemical Industries, Ltd.)
as §4, §5

[5] = as above; conditions: for β-Solution (absorbance, RAW DATA): pH 3.5, 37° C. 60 minutes, 550 nm, reference 595 nm, FOD923 developing solution
Protocol: as §8, §9, §7, §10, §4, §5

[6] = Screening of protease (pH 3.5), control solution without substrate; conditions: pH 3.5, no substrate; 550 nm, reference 595 nm
Protocol: as §8, §9, §10, §4, §5

| Molecule | α-Solution (absorbance, RAW DATA) [1] | β-Solution (absorbance, RAW DATA) [2] | control solution (absorbance, RAW DATA) [3] | α-Solution (absorbance, RAW DATA) [4] | β-Solution (absorbance, RAW DATA) [5] | control solution (absorbance, RAW DATA) [6] | specificity for β-chain over α-chain N-terminal glycated pentapeptide [2] | specificity for β-chain over α-chain N-terminal glycated pentapeptide ([5]; pH 3.5) |
| --- | --- | --- | --- | --- | --- | --- | --- | --- |
| carboxypeptidase Y: carboxypeptidase Y (manufactured by Oriental Yeast Co., Ltd.) (protein, UniProt P00729 112-532, looked up) Carboxypeptidase Y: KIKDPKILGIDPNVTQYTGYLDVEDEDKHFFFWTFESRNDPAKDPVILWLNGGPGCSSLTGLFFELGPSSIGPDLKPIGNPYSWNSNATVIFLDQPVNVGFSYSGSSGVSNTVAAGKDVYNFLELFFDQFPEYVNKGQDFHIAGESYAGHYIPVFASEILSHKDRNFNLTSVLIGNGLTDPLTQYNYYEPMACGEGGEPSVLPSEECSAMEDSLERCLGLIESCYDSQSVWSCVPATIYCNNAQLAPYQRTGRNVYDIRKDCEGGNLCYPTLQDIDDYLNQDYVKEAVGAEVDHYESCNFDINRNFLFAGDWMKPYHTAVTDLLNQDLPILVYAGDKDFICNWLGNKAWTDVLPWKYDEEFASQKVRNWTASITDEVAGEVKSYKHFTYLRVFNGGHMVPFDVPENALSMVNEWIHGGFSL | 0.240 | 0.209 | 0.031 | 0.195 | 0.206 | 0.034 |  |  |
| carboxypeptidase B: carboxypeptidase B (manufactured by Sigma-Aldrich Corp.) (protein, UniProt P09955 111-416, looked up) Carboxypeptidase B: TTGHSYEKYNNWETIEAWTKQVTSENPDLISRTAIGTTFLGNNIYLLKVGKPGPNKPAIFMDCGFHAREWISHAFCQWFVREAVLTYGYESHMTEFLNKLDFYVLPVLNIDGYIYTWTKNRMWRKTRSTNAGTTCIGTDPNRNFDAGWCTTGASTDPCDETYCGSAAESEKETKALADFIRNNLSSIKAYLTIHSYSQMILYPYSYDYKLPENNAELNNLAKAAVKELATLYGTKYTYGPGATTIYPAAGGSDDWAYDQGIKYSFTFELRDKGRYGFILPESQIQATCEETMLAIKYVTNYVLGHL | 0.036 | 0.127 | 0.028 | 0.063 | 0.147 | 0.060 | cleave a glycated peptide from an N-terminal glycated pentapeptide of a hemoglobin β-chain without substantially cleaving | cleaves a glycated peptide from an N-terminal glycated pentapeptide of a hemoglobin β-chain without substantially cleaving |
| thermolysin: thermolysin (manufactured by Wako Pure Chemical Industries, Ltd.) (protein, UniProt P00800 233-548, looked up) Thermolysin: ITGTSTVGVGRGVLGDQKNINTTYSTYYYLQDNTRGNGIFTYDAKYRTTLPGSLWADADNQFFASYDAPAVDAHYYAGVTYDYYKNVHNRLSYDGNNAAIRSSVHYSQGYNNAFWNGSQMVYGDGDGQTFIPLSGGIDVVAHELTHAVTDYTAGLIYQNESGAINEAISDIFGTLVEFYANKNPDWEIGEDVYTPGISGDSLRSMSDPAKYGDPDHYSKRYTGTQDNGGVHINSGIINKAAYLISQGGTHYGVSVVGIGRDKLGKIFYRALTQYLTPTSNFSQLRAAAVQSATDLYGSTSQEVASVKQAFDAVGVK | 0.053 | 0.249 | 0.055 |  |  |  | cleave a glycated peptide from an N-terminal glycated pentapeptide of a hemoglobin β-chain without substantially cleaving |  |
| proteinase K: Proteinase K (manufactured by Wako Pure Chemical Industries, Ltd.) (protein, UniProt P06873 106-384, looked up) Proteinase K: AAQTNAPWGLARISSTSPGTSTYYYDESAGQGSCVYVIDTGIEASHPEFEGRAQMVKTYYYSSRDGNGHGTHCAGTVGSRTYGVAKKTQLFGVKVLDDNGSGQYSTIIAGMDFVASDKNNRNCPKGVVASLSLGGGYSSSVNSAAARLQSSGVMVAVAAGNNNADARNYSPASEPSVCTVGASDRYDRRSSFSNYGSVLDIFGPGTSILSTWIGGSTRSISGTSMATPHVAGLAAYLMTLGKTTAASACRYIADTANKGDLSNIPFGTVNLLAYNNYQA | 0.031 | 0.077 | 0.017 | 0.024 | 0.026 | 0.023 |  |  |
| protease type VIII: protease (type VIII Subtilisin Carlsberg: manufactured by Sigma-Aldrich Corp.) (protein, UniProt P00780 106-379, looked up) Subtilisin Carlsberg: AQTVPYGIPLIKADKVQAQGFKGANVKVAVLDTGIQASHPDLNVVGGASFVAGEAYNTDGNGHGTHVAGTVAALDNTTGVLGVAPSVSLYAVKVLNSSGSGSYSGIVSGIEWATTNGMDVINMSLGGASGSTAMKQAVDNAYAKGVVVVAAAGNSGSSGNTNTIGYPAKYDSVIAVGAVDSNSNRASFSSVGAELEVMAPGAGVYSTYPTNTYATLNGTSMASPHVAGAAALILSKHPNLSASQVRNRLSSTATYLGSSFYYGKGLINVEAAAQ | 0.023 | 0.020 | 0.012 | 0.019 | 0.018 | 0.016 |  |  |
| carboxypeptidase A: carboxypeptidase A (manufactured by Wako Pure Chemical Industries, Ltd.) (protein, UniProt P00730 111-419, looked up) Carboxypeptidase A1: ARSTNTFNYATYHTLDEIYDFMDLLVAEHPQLVSKLQIGRSYEGRPIYVLKFSTGGSNRPAIWIDLGIHSREWITQATGVWFAKKFTEDYGQDPSFTAILDSMDIFLEIVTNPDGFAFTHSQNRLWRKTRSVTSSSLCVGVDANRNWDAGFGKAGASSSPCSETYHGKYANSEVEVKSIVDFVKDHGNFKAFLSIHSYSQLLLYPYGYTTQSIPDKTELNQVAKSAVEALKSLYGTSYKYGSIITTIYQASGGSIDWSYNQGIKYSFTFELRDTGRYGFLLPASQIIPTAQETWLGVLTIMEHTLNNLY | 0.022 | 0.145 | 0.018 |  |  |  |  |  |
